# Experiment: soluble on expression in E. coli; label from the status in PepcDB or PDB records
row,Sequence,soluble on expression in E. coli
1,MSLMKFIIKLFPEITIKSQSVRLRFIKILTGNIRNVLKHYDETLAVVRHWDNIEVRAKDENQRLAIRDALTRIPGIHHILEVEDVPFTDMHDIFEKALVQYRDQLEGKTFCVRVKRRGKHDFSSIDVERYVGGGLNQHIESARVKLTNPDVTVHLEVEDDRLLLIKGRYEGIGGFPIGTQEDVLSLISGGFDSGVSSYMLMRRGCRVHYCFFNLGGAAHEIGVRQVAHYLWNRFGSSHRVRFVAINFEPVVGEILEKIDDGQMGVILKRMMVRAASKVAERYGVQALVTGEALGQVSSQTLTNLRLIDNVSDTLILRPLISYDKEHIINLARQIGTEDFARTMPEYCGVISKSPTVKAVKSKIEAEEEKFDFSILDKVVEEANNVDIREIAQQTEQEVVEVETVNGFGPNDVILDIRSIDEQEDKPLKVEGIDVVSLPFYKLSTKFGDLDQNKTWLLWCERGVMSRLQALYLREQGFNNVKVYRPEGGSHHHHHH,soluble
2,MGSDKIHHHHHHMTKRDPSTLIRIARENGAEAEAEPLDLGARVRELRKARDWTLEQAASQAGLARSTLSKIENGQMSPTYDALKKLAVGLQISVPQLFTPPQKGQVNGRMTVTKSGSGSGHATATYEHELLADSLTKKQMLPYRARVRARAMEEFDGWVRHDGEEFLYVLTGVIRLYTEFYEPIEMRRGDSAYYDASMGHNVVSVSDEDATILWVTSLV,not soluble
3,MKKQLDQLTAYTPGLSPESLKKQYGIRGELHKLASNENVYGPSPKVKTAIQSHLDELYYYPESGSPKLREAISQQLNVDASRILFGAGLDEVILMISRAVLSPGDKIITSESTFGQYYHNAIVESADVIQVPLKDGGFDLDGMLQQIDNKTSLIWLCNPNNPTGTYFSHDELFNFLKRVPSDIPVLIDEAYVEFVTADDFPDTLKLQEDFDNAFLLRTFSKAYGLAGLRVGYVIASEDAIEKWNIIRPPFNVTRISEYAAIAALEDQEYLKEVTQKNSFERDKFYQIPQSQHFLPSQANFVFVKTSRSQALYDALLNVGCITRLFPNGVRITIGLPEQNNKMIEVLKHFEY,not soluble
4,MSTLRVACVIPTYNGCQDLARLLDSLEIQSAPFDTLIVDSSSSDGTYELALARCANVLRIDSRDFNHGGTRQLMVERNADYDLYVFMTQDAYLEDAEGLARIVAPFADPQVGAVCGRQLPHLDASPLASHARLFNYPPTSQVKSLADVPALGIKTAFMSNSFSAYRREALMQVGGFPNHVILSEDMYVGAKMLLAGWKVAYEGSACCRHSHNYSLKEEFRRYFDIGVFHAREPWIRQAFGGAGGEGLRYVQSELRFLGPGRLGQWPGSLLRNAVKLFAYKLSQQERYLPLGLKRKLGMYKRYWDSPYALEHHHHHH,soluble
5,MSLNALYNSLKQRLESGEWLAGQRMPSIRKLASTSEASYHDAVTAYARLVSEGLLSASPGRGYFVNSGASQAVSPREPECMSADPLFRLLQAGPQYTKLGGGWLPPAWRDTELLAKAIRRTARLEQSSLAEYGDISGYLPMRKQLCVHMKRLTRIDIRPSQVLSTLGATQGLDLVARLLIKAGDHVFVDEPGNGNLIRLIQLAGGHVVGVRRTQDGPDIAEMESYLAKHTVKAFFCNSTFHNPTGSNISPHNAFKVLRLAVEHEFFVVEDDVYGDFSPTVRQTFAELDNLDRVIYIGSFSKCLSASLRVGYIACSQELIEPLTRLKLLTCVAVPAFCERFVNTILADGTYARHMQDVQQRLISQQVQTQRSLLARGWKFDIAPQGGMFIWAYHPDITDLQPFMTKLEQHRILLMPGSAFSVTRDYQRFARINCTHFSEAVEAHFSV,not soluble
6,PEIAEVVIGVGENAVKIGGEEVLHRHELTFFNPTGFFYDVWDTMDDKALEERCDRVVSYKKFYVGNFLTLDGFAVRCTSGDPKRYREVVKKVASYGKPLILVALDSECMKAALEEVADQRPLMYAATEGNWKEFLKLALEYKVPVTLRAKDLDLLKSMAVTFKQAGVKDIVLDPVTEPLGEGLKGTFERVIQLRRTAIAGQDKDVAYPIMITPIAAWLIEGDDVTKSYWEAVIASIFIVKYGDVMIFRSIDQHVVMPTITLRFNIYTDPRTPVQVEPGLRAINDPGPDDPVFITTNFALTYYTVESDLTSGGIKGWLLVLNTEGLGVEVSVAGGQFTASKVKELIEETKIEEKVNHRYLVIPGLAARLQGAIEDETGWKVLVGPMDSGRIKGWLEKNWP,not soluble
7,MSLNHILETLIKLLKVGMEAIDRKGLIAILTSSIGNDEMDDSEQAVMVYNELIDKLQLNIPKDVDYRPNIYSYFGIQKKPNDTILVEMMISIFHIKRFDSELFVFKDKGWQKVNEDELQGLISKMIQVLLVDYKPSLSILKNVVVGLQNSIDVEELVENKQYIGCGHNMFNLDAFEVVGNSIKIFPATRLNLELVKSDVITEKTPPHFNRYMLEFANFDSDLQYFLFQHIAVLLTANTKYRRALLLYGGAKNGKSVFINLVRSFFYSEDIVSKALNELQGRFDKESLVGKKLMASDEIGESRIQEKIVNDLKKLVSVEPVHVDRKGKTQVETTLDLKLAFGTNARLNFPSAHAKALERRIAVIPCEYYVEKADPDLIEKLQDEKKEIFLYLMYVYKQIVKNDIEYLQNDRVTEISHDWLNFGYEFVSSKSASIANQKACINLLRKLIEIKPGSRIKVSELNKVINEEIKVSSQVIKQLIQANFDTQTKLYNGYDYWIDLGWKEADKKEIHDISKKDNIISLDKNENITDDETLDEENLDFDWEDFDDEGHHHHHH,soluble
8,MKIKYFFIPLFSSAILFSACSSIQSDLRNLIKETTGKDFDVSKLIKTSEGRKNLINSLKKSYESKPDETASLLLIAWKQSAEMGEIGFDDIKEGGIYTRDNDPFKLEQKVEYFNMEYKILVMF,soluble
9,MGSDKIHHHHHHMTIIAGTVVKGKQLGRKLGFPTANVDAKIHGLRNGVYGVLATVNHQFHLGVMNIGVKPTVGSNLEKTLEIFLFDFHRDIYGEKIECSILFKIREERRFDSLESLTKQIKKDISCVAKRFELIGIMAPNKKESLLSHQELNLPDLCFYKKCNNLYGVNRGVYNVIDNWFFEYGITQVAYRRIYILSFLSFLKEDNPKVSSKYIRFGAGGLADKLNRFISSYVEESEENILG,not soluble
10,MGSDKIHHHHHHMSSSAKPLPTIERPREDASGRARVPGWVIGIDLGGTKILAGIARTQEQIIATREEPTLHGEDAPVLAQMARLITSLLSDAGALAQELDNVVIGVPSAVDPQTGLSSLSPNLALPVDRPLADLMSRFVSCPVTVENDVNLAAYGEAWAGAGQGLGSLVFVSFGTGVGMGIVLDGEPWRGAAGRAGEIAYLPVGAAPHETAPLSENGLYEDGVGTSGIRQRFTRDGGTVAELFSLARSGNEQARLAIDSVAKQASIGIAAVHALLDPAVTVIGGGIGSQPEFFTLLQAHLQPLLPFESPLKQSRLGVQAGMIGAVALALKNRVPHPEKSNAENL,not soluble
11,MSGGSSRRYPPELRERAVRMVAEIRGQHDSEWAAISEVARLLGVGCAETVRKWVRQAQVDAGARPGTTTEESAELKRLRRDNAELRRANAILKTASAFFAAELDRPAR,soluble
12,MVRKGRQHTEEALQEPRADRDRDVPNHIRGQAEQGVGARALQEGRGERAPQDTPAARGGRARGEGAREGEDYIARWEKPPRHHRQGDNGGARQDQARAGEVPLDLLILILIGP,soluble
13,KIYSGRILIPLQHILKELKRIRANSLNRRLKTTGNNDELEDMIETLNSMLDRLDSAFKAEKSFVSHASHELNNPITAIQGECEISLLKERSTGEYIEALQRISSESKRISNLIRHLLFLSRQDEELIKSNMEAMSLPDMLNDLIKMNERIRLHYQETGKAAT,not soluble
14,MGSDKIHHHHHHMIRVIDCTLREGCQARQCSFDSAQSVQLAREIAALGVDMIECGHPRISADERERVRAVVAAVSTPVLAHARARREDIDAVLETGAQWVGLFASINAISLETKFKGMNREEVLELFHDAIRYARERGLRVRATVEDAARTSVSDLVSMIATARDAGADRICFADSVGILLPDETFDVLSLLRHEFPDVVFEYHVHNDRGLALGNTLAAIQAGVQWHSASCNGIGERAGITDTFQLLTLLHTKFAADRFNLKNVLAVSELVEAHSRIKRSPMHPVVGENAFVHVARLHQLAMQENQDAYSAFDPELINGRVSLQRYTPMHRQSLFLTPFEKSASELKYHRHGPGKRFVMLDRRLLDGSPFYFIARQFHDVGDGGPGHVDSHVHNCDSVFLFLGSDEDYRGLEVEVLLGGQLRRLQSPASVFIPAGVEHSYRYLGGSGTYINFVHKGDYHESLLEITQ,not soluble
15,MDMSKASQEQFSMFMNLLCITVKDMPITEYYTSYILWEEVEFLEGVKDLLDPTSAFEDRRSSLYHHLGHNFASNCSLKDDNNVRDAHVVVEDHTKFDNYMYDQMTRKEWTSLHL,soluble
16,MGSDKIHHHHHHAQKKTQKTYIPWSNGKLVVSEEGRYLKHENGTPFFWLGETGWLLPERLNRDEAEYYLEQCKRRGYNVIQVQTLNNVPSMNIYGQYSMTDGYNFKNINQKGVYGYWDHMDYIIRTAAKKGLYIGMVCIWGSPVSHGEMNVDQAKAYGKFLAERYKDEPNIIWFIGGDIRGDVKTAEWEALATSIKAIDKNHLMTFHPRGRTTSATWFNNAPWLDFNMFQSGHRRYGQRFGDGDYPIEENTEEDNWRFVERSMAMKPMKPVIDGEPIYEEIPHGLHDENELLWKDYDVRRYAYWSVFAGSFGHTYGHNSIMQFIKPGVGGAYGAKKPWYDALNDPGYNQMKYLKNLMLTFPFFERVPDQSVIAGQNGERYDRAIATRGNDYLMVYNYTGRPMEVDFSKISGAKKNAWWYTTKDGKLEYIGEFDNGVHKFQHDSGYSSGNDHVLIVVDSSKDYVKKDCYQIDTHE,not soluble
17,MLYREHHSWIYTWLYRRLGNSADAADLAQDTFIRVITRKSLLEIEQPRAYLTTVAKSLMLNWFNRRNIEQAYLEVLANQPEFEHPSPEQRYLIVETLIEVIQLLDTLPDQIRDVFLHAQLENMNYQQIADQFNLSLSTVKRHIKKAYIHCLTAMLDTDFSC,not soluble
18,MGSDKIHHHHHHMSESEYKIADGSGKFLQAVKDGRRMKDAQWSKGRILLSNKRIVLAGSEGKRNLPLSEVQGLSGRHDVNQTVAKVGNYVSIRMTNESVMLVSLGDNTETFESKLYGALLDQTELQVKHPAVEGGVVTDEQFERARIKVDESELSVAMSNGSFVSVELDDVGSAEAASLEVNGDTKPVLKVEHTVNRDTSVQTYFATDSHTASILESLLTKEAEKSQGSVELSETEKRVLMALYSGVSSFEIPDFLGMDVDEVESIFERLIEVDVLEEVRKRREVTMKTRGRNIASEAINEE,not soluble
19,MFSRDRVAYTDLTVNSACDDLFPGVEDVDAQATLQLRAALDAFEEGVFEYHNRASQAGEADAGKHSARGGGQRRTRREKIYASRIPEDRQFFRPVDQQSAEWAAFKPHLWLRGRRIHSADAAAHAGQHHHLHHHTPAGAPQAQQPALAASPVHAGAGLPAGTAGAGADAGAGAGTGAGLELRGTRAVLAPPPPEAEDAADPDRECVLVDHGDFAESLAVQWDAWEAAATRGGPQALRRRRGRPRDEKAVAVGLPPVEPRSAILYDVAEELLPDVWQRLAPLLAPLLARVAEERKKRPASSAAAAFRGAGAGGGGGGGLGGGSFGGGDFEILTFS,not soluble
20,ILKELENLSPEEAAHQKAVVETLLQEDPWRVAKMVKSYLQQHNIPQREVVDTTGLNQSHLSQHLNKGTPMKTQKRAALYTWYVRKQREVAQQFTHAGQGGLIEEPTGDELPTKKGRRNRFKWGPASQQILFQAYERQKNPSKEERETLVEECNRAECIQRGVSPSQAQGLGSNLVTEVRVYNWFANRRKEEAFR,soluble

# — the DeepSol protein solubility set
